From the supplement of paper PMC9170038

Test system: MS2 coat protein
Test: apparent KD of MS2 coat protein; designed switch direction (-1 OFF switch, 1 ON switch): 1; higher = weaker reporter binding
How it was run: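 Stalled E. coli RNA polymerase transcribed designed RNA switches on Illumina chips, which were then titrated with SNAP-549-labelled MS2 coat protein, doubling from 0.7 or 1.5 nM to 3 µM. Steps lasted from 0.8–1.5 h at the lowest concentration to 10–20 min at the highest. The apparent KD is each design's median over clusters of curve-fitted normalised fluorescence.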

[1] = Eterna round: R95, input ligand: FMN 200 uM
[2] = Eterna round: R95, input ligand: microRNA oligo, concentration not stated
[3] = Eterna round: R95, input ligand: none
[4] = input ligand: microRNA oligo, concentration not stated

Sequence | apparent KD of MS2 coat protein [1] [nM] | apparent KD of MS2 coat protein [2] [nM] | apparent KD of MS2 coat protein [3] [nM] | apparent KD of MS2 coat protein [4] [nM] | apparent KD of MS2 coat protein (input ligand: FMN 200 uM) [nM] | apparent KD of MS2 coat protein (input ligand: none) [nM]
ACUUGCUUUUUGCUCGUAUAUUGUCCGUUACAUGAGGAUCACCCAUGUGUGUAUUGUGUGUUGUUUUUGAUACGUGU [JR_SHM208A_Sub070] (puzzle: Sensor for hsa-mir-208a) | 56 | 62.8 | 74.2 | – | – | –
UUGAAGAACUAAGGAUAUUGAAUACAUAUGUUUAACAUGAGGAUCACCCAUGUGGGUUGCGGUAUCGAGAAGGUAGAUUACUAG [Mat - Same State NG 2 - JL mod - D10] (Eterna round: R96, puzzle: Same State NG 2) | – | – | – | 83.4 | – | –
CCGCUAAAUGGAGGAUAUGGAGCCUUAUUGGCUCCAGAAGGCUAAAACAUGAGGAUCACCCAUGUGCGGCGGUCUAAUGACCGA [Eli NG1ss - 49] (Eterna round: R96, puzzle: Same State NG 1) | – | – | – | 34.6 | 14.7 | 49.3
AGUCCAGCCUGAGCUGGACAAAAGUAUGUACAUGAGGAUCACCCAUGUCAUGUACAAGCUUUUUGCUCGUCUUAAUA [Zipper 49 - 9] (puzzle: Sensor for hsa-mir-208a) | 404 | 24.1 | 511 | – | – | –
AGUCCAGCGAAAGCUGGACAAAAGCAUGUACAUGAGGAUCACCCAUGUUCAUGUACAAGUUUUUUGCUCGUCUUAAA [JL mod - D95 - 13] (puzzle: Sensor for hsa-mir-208a) | 33.7 | 10.4 | 32 | – | – | –
CGUCGUUUGCUAGGAUAUCGCUAUACAUGAGGAUCACCCAUGUUUACCACGCUGGUUUUUCAUACCGAGAAGGAUUCUGAUGUU [salish99_SSNG02_r04_018] (Eterna round: R96, puzzle: Same State NG 2) | – | – | – | 28.7 | 24 | 34.1
GUUACAUGAGGAUCACCCAUGUAUGUGUGGGAGUAAGUGUCUUAGGAUAUCUAUUAAUUAAAUUAAGAGAAGGAAGAUUGUUGU [JMF's solution 14] (Eterna round: R96, puzzle: Same State NG 3) | – | – | – | 83.7 | 127 | 112
CAGGCGCAACAUGAGGAUCACCCAUGUGCUAACUUAACAGGGCAGGAUAUGGAAGCUCUAUGUCUCCAGAAGGGCUGGCGGAGC [Eternabot solution 38] (Eterna round: R96, puzzle: Same State NG 3) | – | – | – | 32.6 | 48.2 | 53.3
UUAAUGAUGAAAGGAUAUACAUGAGGAAUUCUCGUAGAAGGUUCAUGACAUGAGGAUCACCCAUGUAUCGCUCGAAAGAGCGUA [Mat - Same State NG 1 - JL mod - D30] (Eterna round: R96, puzzle: Same State NG 1) | – | – | – | 11.6 | 149 | 47.1
GGAGAACAUGAGGAUCACCCAUGUAAGCGUUAGCUAGGAUAUGCGGGAAGGAAGAGAGAAGCAGAAGGAGUCGGUA [JR_SS1_Sub032] (puzzle: Same State 1) | 34.9 | 39.4 | 67.8 | – | – | –
GGUACCAACACAGGAUAUGCUAUCCUUUGGGUAGCAGAAGGGUGGUACAUGAGGAUCACCCAUGUGGUGCCAGGGCGUGAGCCC [JL SSNG1 1.95] (Eterna round: R96, puzzle: Same State NG 1) | – | – | – | 1190 | 383 | 4440
UUCCCAUCGGGAGGAUAUGGUACCUUAUUGGUUCUAGAAGGUCCAACAUGAGGAUCACCCAUGUGGGAGUGGUCUAAUGACCUC [SS NG10LRO04] (Eterna round: R96, puzzle: Same State NG 1) | – | – | – | 326 | 247 | 311
